Test results as given in patent publication US20040181042A1 (MEDICAL AND BIOLOGICAL LABORATORIES, published 2004).

Molecular target: T1, aggregated Aβ in plaques of the cerebral cortex of a patient with Alzheimer's disease (human (brain of a patient with …, UniProt P05067 672-713))
T1 construct: Tissue section fixed in 4% formaldehyde, embedded in paraffin, pre-treated with formic acid; also called neurotic plaques
Experiment: immunolabeling of sections of Alzheimer's disease cerebral cortex
Source text: A section of the cerebral cortex of the brain of a patient with Alzheimer's disease was fixed in 4% formaldehyde and embedded in paraffin, then pre-treated with formic acid. […] Arrows indicate vessels in the serial sections.

T1 sequence (P05067 672-713): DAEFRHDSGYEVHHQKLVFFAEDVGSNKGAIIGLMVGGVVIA

B1: antibody 4396C (antibody, V domains shown)
VH: EVQLQQSGPELVKTGASVKISCKASGYSFTGYYMHWVKQSHGKSLEWIGYISCYNGATSYNQKFKGKATFTVDTSSSTAYMQFNSLTSEDSAVYYCARGANWVFDYWGQGTTLTVSS
VL: QAVVTQESALTTSPGGTVILTCRSSTGAVTTSNYANWVQEKPDHLFTGLIGGTSNRAPGVPVRFSGSLIGDKAALTITGAQTEDDAMYFCALWYSTHYVFGGGTKVTVLG
  binding result: no binding
